The record followed here is paper PMC5715787, “Structural basis for antibody recognition of the NANP repeats in Plasmodium falciparum circumsporozoite protein” (Proceedings of the National Academy of Sciences of the …, 2017).

Common to all, as to assay: ITC; MicroCal Auto-iTC200; triplicate (or duplicate) experiments; details in SI
Holding throughout (details): both partners purified

For assay [1], the target named is T1, (NPNA)3 peptide, Ac-[residues removed]-NH2 (Plasmodium falciparum CSP repeat …).
T1 construct: also called 12-mer

For assay [2], the target named is (NPNA)2 peptide (Plasmodium falciparum CSP repeat …).
Assay [3] concerns the target T2, Ac-NPNVDPNANPNV-NH2 peptide (Plasmodium falciparum CSP repeat …).
T2 chain: Ac-NPNVDPNANPNV-NH2

For assay [4], the target named is T3, Ac-DPNANPNVDPNA-NH2 peptide (Plasmodium falciparum CSP repeat …).
T3 chain: Ac-DPNANPNVDPNA-NH2

B1: Fab311 (Fab, V domains shown)
VH: QVQLVESGGGVVPPGRSLRLSCATSGFTFSNYGMHWVRQAPGKGLEWVAIIWYDGSRNFYAASVEGRFTISRDNSKNTLYLQMNSLRVEDTAVYYCARAAYYDTSGYGDYWGQGTLVTVSS
VL: QSVLTQPPSVSGAPGQTVTISCTGGSSNIGAGYDVHWYQQLPGTAPKLLIYGNINRPSGVPDRFSGSKSGTSASLAITGLQAEDEADYYCQSYDRRLSGSWVFGGGTKLTVL
As for B1, the Kd in assay [1] was found to be 305 nM; in assay [2], 296 nM; in assay [3], 1790 nM; in assay [4] it was 1370 nM. The dH in assay [1] was -29.8 kcal/mol; in assay [2], -16.4 kcal/mol; in assay [3], -18.7 kcal/mol; in assay [4], -20.2 kcal/mol. The “stoichiometry N” value was determined as 0.74 in assay [1], 1.5 in assay [2], 1.24 in assay [3] and 1.2 in assay [4].

B2: Fab317 (Fab, V domains shown)
VH: QMQLVESGGGVVQPGRSLRLSCTASGFTFSTYAMHWVRQSPGQGLQWVAVISYHSTNKYYEDSVRGRFTISRDNSKNTLYLQMNSLRAEDTAVYYCARDGYSSSFFDFWGQGTLVTVSS
VL: DIQMTQSPSTLSASVGDRVAITCRASQSISRWLAWYQQQPGKAPKLLMSGASVLESGVPSRFSGSGSGTEFTLTISSLQPDDFATYYCQHYNSYFVTFGQGTKVEIK
Regarding B2, in assay [1], the affinity, expressed as Kd, was 78 nM; the dH is -15.7 kcal/mol; the “stoichiometry N” value stood at 1.27. In assay [2], binding was characterised by a dissociation constant (Kd) of 173 nM, the dH is -12.1 kcal/mol and the “stoichiometry N” value was 1.41. For the same molecule, in assay [4], the Kd was 448 nM, the dH was -9.39 kcal/mol and the “stoichiometry N” value worked out at 1.64.
